These are literature values, as cited in US20160282364A1, “ASSAY FOR INSULIN-DEGRADING ENZYME (IDE) INHIBITORS” (PRESIDENT AND FELLOWS OF HARVARD COLLEGE, priority 2013, published 2016).

This data set relates to IDE.

B1: insulin-like peptide 3 (protein, UniProt P51460 21-55; P51460 106-131, looked up)
Insulin-like 3 B chain: LGPAPTPEMREKLCGHHFVRALVRVCGGPRWSTEA
Insulin-like 3 A chain: AAATNPARYCCLSGCTQQDLLTLCPY
modifications: Insulin-like 3
notes: IDE substrate in vitro
In general, Km refers to the concentration of substrate that gives half-maximal velocity. The term kcat denotes the number of substrate molecules converted per active site and unit of time at saturation. As to B1, for the setting “IDE substrate”, the Km is 0.055 µM and the kcat is 0.0025 s⁻¹. Also, the Degradation result (degradation kinetics compared to insulin) is recorded as “Fast”.
